Target: GST-FUS (Homo sapiens, UniProt P35637 1-526)
Assay: EMSA; 0.15-5 uM GST-FUS; yeast tRNA 25 ng, heparin added after binding; 10 mM Tris pH 7.5, 75 mM KCl, 4 mM MgCl2, 25 mM phosphocreatine, 1.25 mM ATP, 1.3% polyvinyl alcohol, 25 ng yeast tRNA, 0.8 mg BSA, 1 mM DTT, RNasin, 0.1 mM EDTA, 10% glycerol; 10 ul, 20 min at 30 C; then heparin 0.5 ug/ml; 4.5% native gel
Conditions: protein: recombinant; tags: N-terminal GST, TEV-cleavable (GST-TEV-FUS); label: 32P-UTP; single strand

Sequence of GST-FUS (P35637 whole entry): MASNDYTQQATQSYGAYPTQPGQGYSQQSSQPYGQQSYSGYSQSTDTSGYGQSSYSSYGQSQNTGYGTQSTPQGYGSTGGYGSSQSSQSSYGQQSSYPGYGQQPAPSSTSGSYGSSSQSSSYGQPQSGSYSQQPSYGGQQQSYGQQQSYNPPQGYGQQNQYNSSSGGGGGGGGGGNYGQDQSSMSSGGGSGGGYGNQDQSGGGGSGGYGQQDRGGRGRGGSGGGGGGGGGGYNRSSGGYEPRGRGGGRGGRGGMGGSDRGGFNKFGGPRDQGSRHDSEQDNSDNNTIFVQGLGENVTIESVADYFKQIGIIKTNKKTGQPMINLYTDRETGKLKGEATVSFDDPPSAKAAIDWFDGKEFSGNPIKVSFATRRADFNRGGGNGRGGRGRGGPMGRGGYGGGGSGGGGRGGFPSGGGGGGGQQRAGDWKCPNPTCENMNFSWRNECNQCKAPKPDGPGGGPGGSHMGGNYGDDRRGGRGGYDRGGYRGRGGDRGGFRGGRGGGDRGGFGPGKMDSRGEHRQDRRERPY

B1: FUS RNA probe (GU-repeat) (ssRNA)
RNA: GGGGAAAAUUAAUGUGUGUGUGUGGAAAAUU
binding result: binds

Source: PMC3082519, “Molecular Determinants and Genetic Modifiers of Aggregation and Toxicity for the ALS Disease Protein FUS/TLS”
